Experimental data as given in patent US20230074436A1 (DENALI THERAPEUTICS, published 2023).
Where a chain is given by its changes, count along the chain named. Like-named read-outs stand apart in the source and are kept apart here. Values belong to the binder of their own block, whether it stands above or below them.

Key:
[1] = target: T1, alpha-synuclein peptide 1-61 (human); assay: peptide ELISA
T1 construct: synthetic peptide coated on plate

[2] = target: T2, alpha-synuclein peptide 1-95 (human); assay: peptide ELISA
T2 construct: synthetic peptide coated on plate

[3] = target: alpha-synuclein peptide 1-112 (human); assay: peptide ELISA, coated fragment
[4] = target: T3, alpha-synuclein peptide 95-140 (human); assay: peptide ELISA, coated fragment
T3 construct: synthetic peptide coated on plate

[5] = target: T4, alpha-synuclein peptide 61-140 (human); assay: peptide ELISA, coated fragment
T4 construct: synthetic peptide coated on plate

[6] = target: T5, human alpha-synuclein monomer (human, UniProt P37840 1-140); assay: direct ELISA on coated antigen;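 also: plates coated with recombinant human, mouse or rat alpha-synuclein, purified antibody titrated 10 µg/mL down to 0.6 ng/mL for 1 h, bound antibody detected by anti-rat HRP with TMB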
mouse alpha-synuclein [7] = target: T6, mouse alpha-synuclein (mouse, UniProt O55042 1-140); assay: direct ELISA on coated antigen;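 also: plates coated with recombinant human, mouse or rat alpha-synuclein, purified antibody titrated 10 µg/mL down to 0.6 ng/mL for 1 h, bound antibody detected by anti-rat HRP with TMB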
rat alpha-synuclein [8] = target: T7, rat alpha-synuclein (rat, UniProt P37377 1-140); assay: direct ELISA on coated antigen;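 also: plates coated with recombinant human, mouse or rat alpha-synuclein, purified antibody titrated 10 µg/mL down to 0.6 ng/mL for 1 h, bound antibody detected by anti-rat HRP with TMB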
[9] = target: T5, human alpha-synuclein monomer; assay: ELISA, coated human alpha-synuclein
mouse alpha-synuclein [10] = target: T6, mouse alpha-synuclein; assay: ELISA, coated mouse alpha-synuclein
[11] = target: T5, human alpha-synuclein monomer; assay: ELISA, plate coated with the peptide or protein, antibody titrated, anti-rat HRP, A450
mouse alpha-synuclein [12] = target: T6, mouse alpha-synuclein; assay: as above
[13] = target: T1, alpha-synuclein peptide 1-61; assay: as above
[14] = target: T2, alpha-synuclein peptide 1-95; assay: as above
[15] = target: T3, alpha-synuclein peptide 95-140; assay: as above
[16] = target: T4, alpha-synuclein peptide 61-140; assay: as above
[17] = target: human alpha-synuclein pre-formed fibrils (human, UniProt P37840 1-140); assay: competition ELISA: fibrils titrated in solution against 0.6 nM antibody, free antibody read on aSyn-coated plate
[18] = target: human alpha-synuclein oligomers (human, UniProt P37840 1-140); assay: competition ELISA: oligomers titrated in solution against 0.6 nM antibody, free antibody read on aSyn-coated plate
rat alpha-synuclein [19] = target: T7, rat alpha-synuclein; assay: direct ELISA, plate coated with 1 µg/mL recombinant rat alpha-synuclein, antibody titrated, anti-rat HRP, A450
[20] = target: T5, human alpha-synuclein monomer; assay: direct ELISA, plate coated with 1 µg/mL recombinant human alpha-synuclein, antibody titrated, anti-rat HRP, A450
mouse alpha-synuclein [21] = target: T6, mouse alpha-synuclein; assay: direct ELISA, plate coated with 1 µg/mL recombinant mouse alpha-synuclein, antibody titrated, anti-rat HRP, A450
[22] = target: T5, human alpha-synuclein monomer; assay: SPR (Biacore 8K), IgG captured on anti-human Fc, aSyn monomer injected
[23] = target: T5, human alpha-synuclein monomer; assay: as above; remark: listed apart in the source
[24] = target: T5, human alpha-synuclein monomer; assay: as above; remark: listed apart in the source

antibody concentration at which ELISA is positive [1]: > 2600 ng/mL | antibody concentration at which ELISA is positive [2]: > 2600 ng/mL | antibody concentration at which ELISA is positive [3]: 160 to 640 ng/mL | antibody concentration at which ELISA is positive [4]: < 40 ng/mL | antibody concentration at which ELISA is positive [5]: < 40 ng/mL | Bmax (O.D. at 450 nm) [6]: 1.36 OD | EC50 [6]: 0.05 nM | EC50 (mouse alpha-synuclein [7]): 0.08 nM | Bmax (O.D. at 450 nm) (rat alpha-synuclein [8]): 1.21 OD | EC50 (rat alpha-synuclein [8]): 0.3 nM | antibody concentration at which ELISA is positive [9]: < 40 ng/mL | antibody concentration at which ELISA is positive (mouse alpha-synuclein [10]): 40 to 160 ng/mL | EC50 (read off the curve) [11]: ~0.06 µg/mL | EC50 (read off the curve) (mouse alpha-synuclein [12]): ~0.08 µg/mL | EC50 (read off the curve) [15]: ~0.07 µg/mL | EC50 (read off the curve) [16]: ~0.08 µg/mL | IC50 [17]: 85.7 nM | IC50 [18]: 37.6 nM | EC50 (read off the curve) (rat alpha-synuclein [19]): ~0.4 µg/mL | EC50 (read off the curve) [20]: ~0.06 µg/mL | EC50 (read off the curve) (mouse alpha-synuclein [21]): ~0.08 µg/mL
B1: 18B4 (antibody, IgG2b, V domains shown)
VH: EVQLVESGGGLVQPGRSLKLSCAASGFTFSSFAMAWVRQAPKKGLEWVATITSGGSKTYYPDSVKGRFTISRDNAKSTLYLQMDSLRSEDTATYYCAKGYFDYWGQGVMVTVSS
VL: DVVLTQTPPTLSATIGQSVSISCRSSQSLLHSNGNTYLHWLLQRPGQSPQLLIYLVSRLESGVPNRFSGSGSGTDFTLKISGVEAEDLGVYYCVQGTHAPLTFGSGTKLEIK
notes: also called clone 18B4
binding result [13]: no binding (tested: 10 µg/ml (1 on the log axis)) | binding result [14]: no binding (tested: 10 µg/ml (1 on the log axis))

Kd [22]: 2.96 nM
B2: Chimeric 20H4 (antibody, human IgG1, kappa, V domains shown)
VH: AVQLVESGGGLVQPKESLKISCAASGFTFSNAAMYWVRQAPGKGLELLARIRTKPNNYATYHADSVKGRFTISRDDSQSMVYLHMGNLKTEDTAMYYCTADMATGDYWGPGVMVTVSS
VL: DIQMTQSPPVLSVSVGDRVTLSCKASQNINKNLDWYQQKHGEAPKPLIYSTNNLQTGVPSRFSGSGSGTDYTLTISSLQPEDVATYYCYQYKSAWTFGGGTKLELRR
notes: also called Chi 20H4; chimeric 20H4 control

Kd [22]: 2.33 nM | Kd [23]: 3.95 nM
B3: HC2_LC2 (antibody, V domains shown)
VH: EVQLVESGGGLVQPGGSLRLSCAASGFTFSNAAMYWVRQAPGKGLELVSRIRTKPNNYATYHADSVKGRFTISRDNSKNTLYLQMNSLRAEDTAVYYCTADMATGDYWGQGTLVTVSS
VL: DIQMTQSPSSLSASVGDRVTITCKASQNINKNLDWYQQKPGKAPKPLIYSTNNLQTGVPSRFSGSGSGTDFTLTISSLQPEDFATYYCYQYKSAWTFGQGTKVEIK
notes: humanized 20H4 IgG

Kd [22]: 2.78 nM
B4: HC5_LC6 (antibody, V domains shown)
VH: B3 VH with V48L, S49A, N76D, L81V
VL: EIVMTQSPATLSLSPGERATLSCKASQNINKNLDWYQQKPGQAPRPLIYSTNNLQTGVPARFSGSGSGTDYTLTISSLQPEDFAVYYCYQYKSAWTFGQGTKVEIK
notes: humanized 20H4 IgG

Kd [22]: 2.74 nM
B5: HC3_LC6 (antibody, V domains shown)
VH: B3 VH with L81V
VL: B4 VL
notes: humanized 20H4 IgG

Kd [22]: 1.56 nM
B6: HC5_LC2 (antibody, V domains shown)
VH: B3 VH with V48L, S49A, N76D, L81V
VL: B3 VL
notes: humanized 20H4 IgG

Kd [24]: 0.24 nM
B7: HC6_LC_k3_11 (antibody, V domains shown)
VH: B3 VH with N76D
VL: B4 VL with N30S, K31N, N32Q, Q55K, V58I, Y71F

Kd [22]: 1.97 nM
B8: HC5_LC1 (antibody, V domains shown)
VH: B3 VH with V48L, S49A, N76D, L81V
VL: B3 VL with P46L
notes: humanized 20H4 IgG

Kd [24]: 0.22 nM
B9: HC6_LC_k3_8 (antibody, V domains shown)
VH: B3 VH with N76D
VL: B4 VL with N28G, N30S, K31N, N32Y, Q55K, V58I, Y71F

Kd [24]: 0.17 nM
B10: HC6_LC_k3_9 (antibody, V domains shown)
VH: B3 VH with N76D
VL: B4 VL with N28G, N30S, K31N, N32Y, D34A, Q55K, V58I, Y71F

Kd [22]: 2.12 nM
B11: HC3_LC1 (antibody, V domains shown)
VH: B3 VH with L81V
VL: B3 VL with P46L
notes: humanized 20H4 IgG

Kd [22]: 9.78 nM
B12: HC2_LC4 (antibody, V domains shown)
VH: B3 VH
VL: B4 VL with P46L, V58I, Y71F
notes: humanized 20H4 IgG

Kd [22]: 6.59 nM
B13: HC2_LC3 (antibody, V domains shown)
VH: B3 VH
VL: B3 VL with F71Y
notes: humanized 20H4 IgG

Kd [22]: 9.08 nM
B14: HC3_LC4 (antibody, V domains shown)
VH: B3 VH with L81V
VL: B4 VL with P46L, V58I, Y71F
notes: humanized 20H4 IgG

Kd [22]: 5.17 nM
B15: HC5_LC3 (antibody, V domains shown)
VH: B3 VH with V48L, S49A, N76D, L81V
VL: B3 VL with F71Y
notes: humanized 20H4 IgG

Kd [24]: 0.15 nM
B16: HC6_LC_k3_12 (antibody, V domains shown)
VH: B3 VH with N76D
VL: B4 VL with K31D, Q55K, V58I, Y71F

Kd [24]: 0.17 nM
B17: HC6_LC_k3_10 (antibody, V domains shown)
VH: B3 VH with N76D
VL: B4 VL with N30S, K31N, N32D, Q55K, V58I, Y71F

Kd [22]: 5.2 nM
B18: HC3_LC3 (antibody, V domains shown)
VH: B3 VH with L81V
VL: B3 VL with F71Y
notes: humanized 20H4 IgG

Kd [22]: 5.27 nM
B19: HC2_LC6 (antibody, V domains shown)
VH: B3 VH
VL: B4 VL
notes: humanized 20H4 IgG

Kd [22]: 2.46 nM
B20: HC5_LC5 (antibody, V domains shown)
VH: B3 VH with V48L, S49A, N76D, L81V
VL: B4 VL with V58I, Y71F
notes: humanized 20H4 IgG

Kd [22]: 3.21 nM
B21: HC2_LC1 (antibody, V domains shown)
VH: B3 VH
VL: B3 VL with P46L
notes: humanized 20H4 IgG

Kd [22]: 1.63 nM
B22: HC3_LC2 (antibody, V domains shown)
VH: B3 VH with L81V
VL: B3 VL
notes: humanized 20H4 IgG

Kd [22]: 4.11 nM
B23: HC2_LC5 (antibody, V domains shown)
VH: B3 VH
VL: B4 VL with V58I, Y71F
notes: humanized 20H4 IgG

Kd [24]: 0.17 nM
B24: HC6_LC_k3_13 (antibody, V domains shown)
VH: B3 VH with N76D
VL: B4 VL with K31A, Q55K, V58I, Y71F

Kd [22]: 2.4 nM
B25: HC3_LC5 (antibody, V domains shown)
VH: B3 VH with L81V
VL: B4 VL with V58I, Y71F
notes: humanized 20H4 IgG

Kd [22]: 8.48 nM
B26: HC5_LC4 (antibody, V domains shown)
VH: B3 VH with V48L, S49A, N76D, L81V
VL: B4 VL with P46L, V58I, Y71F
notes: humanized 20H4 IgG
